Measured values: patent publication US20200230166A1, “Oligonucleotides in food, beverage, cosmetic and medicinal formulations” (DNA Essence GmbH, priority 2015, published 2020)

Format: in vitro ADME
Protocol: In order to simulate the effect of digestion and oligonucleotide uptake without human trials and without harming endangered species, in vitro gastro-intestinal digestion experiments were performed. […] In short, oral, gastric and intestinal passage were simulated by emulating their respective chemical and enzymatic compositions.
The integrity of the oligonucleotides after in vitro digestion was determined through realtime PCR. Quantification of full length genes was performed using the Applied
Biosystems 7500 (Thermo Fisher Scientific Inc.) with the gScript™ One-Step SYBR® Green qRT-PCR Kit, ROX™ (QuantaBio Inc.) and oligonucleotide primers (Prim_SEQ1 for [ATGCCCTTGTCCAGTC], Prim_SEQ1 rev[CTAGAAAGCACAGCTG]) annealing (53° C.) at the ends of the full length gene. […] In order to simulate the in vitro passage of a traditional extract, a piece of dried beef meat (“beef jerky”, Bos taurus) was used and oligonucleotides for the corresponding growth factor 1 (GenBank: V00111.1) derived (for [acggctcagg gtccgtgaca], rev [ctaataaaat gaggaaattg]). Dried beef samples were rinsed in deionized, sterile water for 14 hours at 21° C. followed by an incubation with proteinase K (400 ng/mL, P2308 Sigma-Aldrich, USA) and guanidine hydrochloride (5 mol/L, CAS Number: 50-01-1) in 1 mL volume for 12 h at 55° C. […]

B1: SEQ ID NO: 1: growth hormone 1 (GH1) of Panthera tigris altaica (tiger) (nucleic acid)
DNA: ATGCCCTTGTCCAGTCTGTTTGCCAACGCCGTGCTCCGGGCCCAGCACCTGCACCAGCTGGCCGCCGACACCTACAAAGAGTTTGAGCGGGCGTACATCCCGGAGGGACAGAGGTATTCCATCCAGAACGCGCAGGCTGCCTTCTGCTTCTCGGAGACCATCCCGGCCCCCACGGGCAAGGACGAGGCCCAGCAGAGATCCGTGAGTGGCCAGGGGCGCCCGGCCAAGGATCAGGGGCCTCCCTCGTCTGCAGGAGTCAGGCCCTGGGCAGCCTTCTCCCTGGGGCCGAGGGTGTGCAGGGAGGCAGACTGGGCCTCTCCGTCCCTCTTCCCCTTTTTGCAGGAGCTGGAAGATGGCAGCCCCCGGGCCGGGCAGATCCTGAAGCAAACCTACGACAAGTTTGACACAAACTTGCGCAGTGACGACGCGCTGCTCAAGAACTATGGGCTCCTGTCCTGCTTCAAGAAGGACCTGCACAAGGCTGAGACGTACCTGCGGGTCATGAAGTGTCGCCGCTTCGTGGAAAGCAGCTGTGCTTTCTAG
modifications: Panthera tigris altaica
detection of full length gene oligonucleotide by realtime PCR: easily detectable amounts
crossing point (CP) of full length oligonucleotide in realtime PCR (after passing through the in vitro digestion assay, 1 million oligonucleotide molecules or more, of 40 cycles): 23 cycles
